Laboratory results reported in article PMC9643514, “Regulation of BRCA1 stability through the tandem UBX domains of isoleucyl-tRNA synthetase 1” (Nature Communications, 2022).

T1: His-IARS1, full-length human IARS1 (residues 1−1262) (human, UniProt P41252 1-1262)
T1 construct: pFASTbacHTb vector; also called purified IARS1; full-length IARS1; source: Sf9, purified (Ni2+ column, IEX, SEC); not shown: His6, N-terminal, kept
T1 sequence (looked up): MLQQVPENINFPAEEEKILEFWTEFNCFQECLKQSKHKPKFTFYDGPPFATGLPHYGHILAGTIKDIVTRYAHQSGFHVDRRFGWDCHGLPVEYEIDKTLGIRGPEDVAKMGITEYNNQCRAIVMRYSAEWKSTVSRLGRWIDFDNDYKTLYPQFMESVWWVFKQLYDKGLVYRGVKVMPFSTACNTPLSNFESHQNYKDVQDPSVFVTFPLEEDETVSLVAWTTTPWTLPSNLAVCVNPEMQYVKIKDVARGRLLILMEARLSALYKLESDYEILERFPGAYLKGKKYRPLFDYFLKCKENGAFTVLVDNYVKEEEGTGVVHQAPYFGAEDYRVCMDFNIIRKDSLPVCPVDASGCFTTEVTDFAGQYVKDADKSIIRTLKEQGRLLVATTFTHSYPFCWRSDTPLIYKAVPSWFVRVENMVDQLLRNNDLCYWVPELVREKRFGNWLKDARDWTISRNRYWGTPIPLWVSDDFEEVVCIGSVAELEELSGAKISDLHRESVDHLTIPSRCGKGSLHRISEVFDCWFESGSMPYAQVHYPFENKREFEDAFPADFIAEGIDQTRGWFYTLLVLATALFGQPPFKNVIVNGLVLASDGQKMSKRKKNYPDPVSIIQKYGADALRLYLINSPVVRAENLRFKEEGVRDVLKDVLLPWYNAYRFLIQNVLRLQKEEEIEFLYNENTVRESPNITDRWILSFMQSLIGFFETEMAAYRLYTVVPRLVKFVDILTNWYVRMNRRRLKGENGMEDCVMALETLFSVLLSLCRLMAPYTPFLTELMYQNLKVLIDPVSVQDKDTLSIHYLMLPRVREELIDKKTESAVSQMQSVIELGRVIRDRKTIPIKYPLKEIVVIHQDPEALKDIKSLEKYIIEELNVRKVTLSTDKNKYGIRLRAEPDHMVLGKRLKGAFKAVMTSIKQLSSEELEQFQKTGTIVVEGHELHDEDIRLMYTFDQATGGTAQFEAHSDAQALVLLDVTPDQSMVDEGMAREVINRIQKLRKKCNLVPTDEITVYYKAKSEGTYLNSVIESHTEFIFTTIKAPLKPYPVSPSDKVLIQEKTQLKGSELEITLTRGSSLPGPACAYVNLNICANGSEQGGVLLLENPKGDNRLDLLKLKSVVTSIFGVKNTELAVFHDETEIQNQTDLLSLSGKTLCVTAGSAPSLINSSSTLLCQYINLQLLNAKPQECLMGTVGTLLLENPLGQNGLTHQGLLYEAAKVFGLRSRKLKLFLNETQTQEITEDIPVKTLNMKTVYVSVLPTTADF

B1: GST-EARS1 with three WHEP motifs (human EPRS1 residues 1–1015) (domain or fragment, UniProt P07814 1-1015, looked up)
chain: MATLSLTVNSGDPPLGALLAVEHVKDDVSISVEEGKENILHVSENVIFTDVNSILRYLARVATTAGLYGSNLMEHTEIDHWLEFSATKLSSCDSFTSTINELNHCLSLRTYLVGNSLSLADLCVWATLKGNAAWQEQLKQKKAPVHVKRWFGFLEAQQAFQSVGTKWDVSTTKARVAPEKKQDVGKFVELPGAEMGKVTVRFPPEASGYLHIGHAKAALLNQHYQVNFKGKLIMRFDDTNPEKEKEDFEKVILEDVAMLHIKPDQFTYTSDHFETIMKYAEKLIQEGKAYVDDTPAEQMKAEREQRIDSKHRKNPIEKNLQMWEEMKKGSQFGQSCCLRAKIDMSSNNGCMRDPTLYRCKIQPHPRTGNKYNVYPTYDFACPIVDSIEGVTHALRTTEYHDRDEQFYWIIEALGIRKPYIWEYSRLNLNNTVLSKRKLTWFVNEGLVDGWDDPRFPTVRGVLRRGMTVEGLKQFIAAQGSSRSVVNMEWDKIWAFNKKVIDPVAPRYVALLKKEVIPVNVPEAQEEMKEVAKHPKNPEVGLKPVWYSPKVFIEGADAETFSEGEMVTFINWGNLNITKIHKNADGKIISLDAKLNLENKDYKKTTKVTWLAETTHALPIPVICVTYEHLITKPVLGKDEDFKQYVNKNSKHEELMLGDPCLKDLKKGDIIQLQRRGFFICDQPYEPVSPYSCKEAPCVLIYIPDGHTKEMPTSGSKEKTKVEATKNETSAPFKERPTPSLNNNCTTSEDSLVLYNRVAVQGDVVRELKAKKAPKEDVDAAVKQLLSLKAEYKEKTGQEYKPGNPPAEIGQNISSNSSASILESKSLYDEVAAQGEVVRKLKAEKSPKAKINEAVECLLSLKAQYKEKTGKEYIPGQPPLSQSSDSSPTRNSEPAGLETPEAKVLFDKVASQGEVVRKLKTEKAPKDQVDIAVQELLQLKAQYKSLIGVEYKPVSATGAEDKDKKKKEKENKSEKQNKPQKQNDGQRKDPSKNQGGGLSSSGAGEGQGPKKQTRLG
notes: pGEX4T3 vector; source: E. coli Rosetta (DE3), purified (GST column, gel filtration)
B2: heterodimeric RING (BRCA1 residues 1–304)-RING (BARD1 residues 26–142) domains of the BRCA1-BARD1 complex (complex)
chain 1: MDLSALRVEEVQNVINAMQKILECPICLELIKEPVSTKCDHIFCKFCMLKLLNQKKGPSQCPLCKNDITKRSLQESTRFSQLVEELLKIICAFQLDTGLEYANSYNFAKKENNSPEHLKDEVSIIQSMGYRNRAKRLLQSEPENPSLQETSLSVQLSNLGTVRTLRTKQRIQPQKTSVYIELGSDSSEDTVNKATYCSVGDQELLQITPQGTRDEISLDSAKKAACEFSETDVTNTEHHQPSNNDLNTTEKRAAERHPEKYQGSSVSNLHVEPCGTNTHASSLQHENSSLLLTKDRMNVEKAEF
chain 2: MEPDGRGAWAHSRAALDRLEKLLRCSRCTNILREPVCLGGCEHIFCSNCVSDCIGTGCPVCYTPAWIQDLKINRQLDSMIQLCSKLRNLLHDNELSDLKEDKPRKSLFNDAGNKKNS
notes: also called RING-RING domains; source: expressed and purified as the BRCA1-BARD1 complex
B3: GST-EARS1 without the WHEP motifs (human EPRS1 residues 1−706) (domain or fragment, UniProt P07814 1-706, looked up)
chain: MATLSLTVNSGDPPLGALLAVEHVKDDVSISVEEGKENILHVSENVIFTDVNSILRYLARVATTAGLYGSNLMEHTEIDHWLEFSATKLSSCDSFTSTINELNHCLSLRTYLVGNSLSLADLCVWATLKGNAAWQEQLKQKKAPVHVKRWFGFLEAQQAFQSVGTKWDVSTTKARVAPEKKQDVGKFVELPGAEMGKVTVRFPPEASGYLHIGHAKAALLNQHYQVNFKGKLIMRFDDTNPEKEKEDFEKVILEDVAMLHIKPDQFTYTSDHFETIMKYAEKLIQEGKAYVDDTPAEQMKAEREQRIDSKHRKNPIEKNLQMWEEMKKGSQFGQSCCLRAKIDMSSNNGCMRDPTLYRCKIQPHPRTGNKYNVYPTYDFACPIVDSIEGVTHALRTTEYHDRDEQFYWIIEALGIRKPYIWEYSRLNLNNTVLSKRKLTWFVNEGLVDGWDDPRFPTVRGVLRRGMTVEGLKQFIAAQGSSRSVVNMEWDKIWAFNKKVIDPVAPRYVALLKKEVIPVNVPEAQEEMKEVAKHPKNPEVGLKPVWYSPKVFIEGADAETFSEGEMVTFINWGNLNITKIHKNADGKIISLDAKLNLENKDYKKTTKVTWLAETTHALPIPVICVTYEHLITKPVLGKDEDFKQYVNKNSKHEELMLGDPCLKDLKKGDIIQLQRRGFFICDQPYEPVSPYSCKEAPCVLIYIPDGH
notes: human EPRS1, EARS1 part without the three WHEP motifs, residues 1-706; pGEX4T3 vector; source: E. coli Rosetta (DE3), purified (GST column, gel filtration)
B4: BRCT domain (residues 1645–1863) of BRCA1 (domain or fragment, UniProt P38398 1645-1863, looked up)
chain: RVNKRMSMVVSGLTPEEFMLVYKFARKHHITLTNLITEETTHVVMKTDAEFVCERTLKYFLGIAGGKWVVSYFWVTQSIKERKMLNEHDFEVRGDVVNGRNHQGPKRARESQDRKIFRGLEICCYGPFTNMPTDQLEWMVQLCGASVVKELSSFTLGTGVHPIVVVQPDAWTEDNGFHAIGQMCEAPVVTREWVLDSVALYQCQELDTYLIPQIPHSHY
notes: BRCA1 BRCT domain, residues 1645-1863; also called BRCA1 BRCT

Tests used:
[1] = target: T1, His-IARS1, full-length human IARS1 …; assay: pull-down; human His-IARS1 or IARS1ΔUBX2 mixed with human GST-EARS1 at 1:1.5, 30 min at 4 °C, Ni-sepharose beads 2 hr at 4 °C, eluted with 250 mM imidazole in His A buffer (20 mM Tris-HCl pH 7.4, 300 mM NaCl, 7 mM 2-mercaptoethanol, 5% glycerol), SDS-PAGE and Coomassie; settings: both partners purified
[2] = target: T1, His-IARS1, full-length human IARS1 …; assay: pull-down; in vitro pull-down of IARS1 with fragments of the BRCA1-BARD1 complex; settings: both partners purified

Row | Binder | binding result [1] | binding result [2]
1 | B1 | binds | –
2 | B2 | – | binds
3 | B3 | binds | –
4 | B4 | – | binds
